{"source": "paper PMC8693730", "origin": "cited, not measured here", "key": {"RAP74 (Homo sapiens) [1]": {"biological_target": "RAP74 (Homo sapiens) (UniProt P35269)", "sequence (P35269 2-517)": "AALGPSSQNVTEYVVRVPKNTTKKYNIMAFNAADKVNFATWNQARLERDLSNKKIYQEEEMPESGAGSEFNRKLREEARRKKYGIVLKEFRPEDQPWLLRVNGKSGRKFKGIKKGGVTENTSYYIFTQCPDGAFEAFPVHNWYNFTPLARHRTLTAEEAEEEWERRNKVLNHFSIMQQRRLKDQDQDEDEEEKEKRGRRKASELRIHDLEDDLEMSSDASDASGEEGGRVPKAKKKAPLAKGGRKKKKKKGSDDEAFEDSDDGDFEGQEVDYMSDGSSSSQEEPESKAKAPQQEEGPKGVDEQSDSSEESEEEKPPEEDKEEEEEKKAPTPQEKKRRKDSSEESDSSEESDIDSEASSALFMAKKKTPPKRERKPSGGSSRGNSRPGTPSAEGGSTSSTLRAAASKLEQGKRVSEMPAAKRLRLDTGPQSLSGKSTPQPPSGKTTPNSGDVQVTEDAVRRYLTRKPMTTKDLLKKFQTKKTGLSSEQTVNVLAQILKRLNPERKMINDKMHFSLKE"}, "RAP74 (Homo sapiens) [2]": {"biological_target": "RAP74 (Homo sapiens) (UniProt P35269)", "remark": "listed apart in the source"}}, "note": "Like-named read-outs stand apart in the source and are kept apart here.", "data": [{"substance": "androgen receptor NTD (from UniProt P10275)", "values": [{"measurement": "Kd", "setting": "RAP74 (Homo sapiens) [1]", "value": 1750, "unit": "µM"}, {"measurement": "Kd", "setting": "RAP74 (Homo sapiens) [2]", "value": 702, "unit": "µM"}]}]}
